Experimental data: paper PMC5165203, “The Cellular DNA Helicase ChlR1 Regulates Chromatin and Nuclear Matrix Attachment of the Human Papillomavirus 16 E2 Protein and High-Copy-Number Viral Genome Establishment” (Journal of Virology, 2016)
Substitutions are numbered along the chain they refer to. Names may count otherwise.

T1: His-ChlR1 63-214 (human, UniProt Q96FC9 63-214)
T1 construct: DNA helicase ChlR1, human, amino acids 63 to 214, cloned from pCMV-FLAG-ChlR1 into pHIS-TEV; Vector pHIS-TEV (NcoI/EcoRI); held on nickel resin by the hexahistidine tag in the pull-down; also called ChlR1 63-214 peptide
T1 sequence (looked up): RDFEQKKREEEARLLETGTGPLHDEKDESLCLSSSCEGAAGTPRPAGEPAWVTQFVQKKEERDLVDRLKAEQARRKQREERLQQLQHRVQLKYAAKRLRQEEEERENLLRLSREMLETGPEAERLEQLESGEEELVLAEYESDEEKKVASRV

B1: HPV16 E2 D124A mutant (natural protein)
chain: METLCQRLNVCQDKILTHYENDSTDLRDHIDYWKHMRLECAIYYKAREMGFKHINHQVVPTLAVSKNKALQAIELQLTLETIYNSQYSNEKWTLQDVSLEVYLTAPTGCIKKHGYTVEVQFDGAICNTMHYTNWTHIYICEEASVTVVEGQVDYYGLYYVHEGIRTYFVQFKDDAEKYSKNKVWEVHAGGQVILCPTSVFSSNEVSSPEIIRQHLANHPAATHTKAVALGTEETQTTIQRPRSEPDTGNPCHTTKLLHRDSVDSAPILTAFNSSHKGRINCNSNTTPIVHLKGDANTLKCLRYRFKKHCTLYTAVSSTWHWTGHNVKHKSAIVTLTYDSEWQRDQFLSQVKIPKTITVSTGFMSI
notes: E2 protein of human papillomavirus 16, from pCMV-16E2 by site-directed mutagenesis; source: C33a cells, transfected (mutated pCMV-16E2), in lysate
B2: HPV16 E2 E118A mutant (natural protein)
chain: B1 chain with E118A, A124D
notes: as for B1
B3: HPV16 E2 H130R mutant (natural protein)
chain: B1 chain with A124D, H130R
notes: as for B1
B4: HPV16 E2 Y131A mutant (natural protein)
chain: B1 chain with A124D, Y131A
notes: as for B1
B5: HPV16 E2 K177A mutant (natural protein)
chain: B1 chain with A124D, K177A
notes: as for B1
B6: HPV16 E2 D173A mutant (natural protein)
chain: B1 chain with A124D, D173A
notes: as for B1

Each binder was assayed against T1, His-ChlR1 63-214 (assay: pull-down; His-ChlR1 1-130 or His-ChlR1 63-214 immobilised on nickel resin, incubated with cleared whole-cell lysate of E2-transfected C33a cells for 16 h at 4°C; bound E2 by Western blotting, densitometry against input). Details: one partner purified.

| Binder | % E2 bound (in comparison to the E2^WT binding level) [%] |
| --- | --- |
| B1 | 38.8 |
| B2 | 107 |
| B3 | 45.2 |
| B4 | 5.43 |
| B5 | 36.3 |
| B6 | 80.5 |
